Among the data in patent US20250179210A1, “ANTI-CEACAM5 ANTIBODIES AND CONJUGATES AND USES THEREOF” (Merck Patent GmbH, priority 2022, published 2025) are Kd values, retold here.

For this assay, the target named is Recombinant Macaca fascicularis CEACAM5_ECD-His-biotin (Syngene) (Macaca fascicularis). The assay is described as follows: BLI (Octet Red), biotinylated antigen captured on streptavidin biosensor, Fab as analyte 6.25-200 nM. In general terms: BLI is a label-free optical method that tracks binding on a fibre tip over time.
Recombinant Macaca fascicularis CEACAM5_ECD-His-biotin (Syngene) (Macaca fascicularis), sequence (chain, as listed by the source limits assumed, form in doubt): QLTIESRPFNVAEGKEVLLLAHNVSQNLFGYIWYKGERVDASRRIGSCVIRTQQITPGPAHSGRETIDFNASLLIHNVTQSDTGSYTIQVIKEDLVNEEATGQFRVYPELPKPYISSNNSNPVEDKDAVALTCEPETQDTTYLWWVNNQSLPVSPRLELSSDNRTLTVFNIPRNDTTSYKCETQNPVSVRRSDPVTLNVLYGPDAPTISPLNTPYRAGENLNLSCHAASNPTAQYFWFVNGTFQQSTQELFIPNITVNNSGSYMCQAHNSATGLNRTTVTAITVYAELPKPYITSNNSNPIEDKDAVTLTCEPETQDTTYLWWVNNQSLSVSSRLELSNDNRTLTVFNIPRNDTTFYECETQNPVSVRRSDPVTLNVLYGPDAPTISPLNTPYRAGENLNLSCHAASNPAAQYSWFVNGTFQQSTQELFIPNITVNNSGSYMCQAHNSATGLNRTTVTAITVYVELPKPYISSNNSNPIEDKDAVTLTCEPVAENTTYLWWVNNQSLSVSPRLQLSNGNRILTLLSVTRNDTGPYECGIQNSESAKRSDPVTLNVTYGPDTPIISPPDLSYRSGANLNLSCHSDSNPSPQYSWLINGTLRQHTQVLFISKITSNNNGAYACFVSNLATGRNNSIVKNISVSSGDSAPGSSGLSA

B1: Fab of mAb1 (Fab, V domains shown)
VH: EVQLQESGPGLVKPSQTLSLTCTVSDGSVSRGGYYLTWIRQHPGKGLEWIGYIYYSGSTYFNPSLRSRVTMSVDTSKNQFSLKLSSVTAADTAVYYCARGIAVAPFDYWGQGTLVTVSS
VL: EIVLTQSPATLSVSPGERATLSCRTSQSVRSNLAWYQQKPGQAPRLLIYAASTRATGIPARFSGSGSGTEFTLTISSLQSEDFAVYYCQQYTNWPFTFGPGTKVDIK
What is called Kd is the free concentration of one partner at which half of the binding sites on the other are occupied at equilibrium, for simple one-to-one binding. For the molecule B1, the Kd stood at 14.1 nM.
